# Earlier results, collected in article PMC3308923.
# Biological target: HIV-1 capsid CA (Human immunodeficiency virus 1) (UniProt O93182)
# Settings: cited from earlier work
# Chain of HIV-1 capsid CA (Human immunodeficiency virus 1) (O93182 133-363): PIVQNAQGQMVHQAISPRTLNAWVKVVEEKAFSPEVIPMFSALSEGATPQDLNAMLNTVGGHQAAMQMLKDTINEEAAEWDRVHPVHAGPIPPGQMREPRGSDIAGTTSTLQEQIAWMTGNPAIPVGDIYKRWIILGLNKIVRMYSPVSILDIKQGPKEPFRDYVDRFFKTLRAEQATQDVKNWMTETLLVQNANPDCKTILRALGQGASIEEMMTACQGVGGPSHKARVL
substance,measurement,value
CAI peptide,Kd,15 µM
